Measurements published in article PMC3093405, “A Motif Unique to the Human Dead-Box Protein DDX3 Is Important for Nucleic Acid Binding, ATP Hydrolysis, RNA/DNA Unwinding and HIV-1 Replication” (PLoS ONE, 2011).

B1: N-DDX3: DDX3 mutant lacking the C-terminus (Δ428–662), aa 1–427, entire subdomain 1 plus linker (protein, UniProt O00571 1-427, looked up, fragment)
chain: MSHVAVENALGLDQQFAGLDLNSSDNQSGGSTASKGRYIPPHLRNREATKGFYDKDSSGWSSSKDKDAYSSFGSRSDSRGKSSFFSDRGSGSRGRFDDRGRSDYDGIGSRGDRSGFGKFERGGNSRWCDKSDEDDWSKPLPPSERLEQELFSGGNTGINFEKYDDIPVEATGNNCPPHIESFSDVEMGEIIMGNIELTRYTRPTPVQKHAIPIIKEKRDLMACAQTGSGKTAAFLLPILSQIYSDGPGEALRAMKENGRYGRRKQYPISLVLAPTRELAVQIYEEARKFSYRSRVRPCVVYGGADIGQQIRDLERGCHLLVATPGRLVDMMERGKIGLDFCKYLVLDEADRMLDMGFEPQIRRIVEQDTMPPKGVRHTMMFSATFPKEIQMLARDFLDEYIFLAVGRVGSTSENITQKVVWVEESDK
B2: DDX1: full length human DEAD-box protein DDX1, recombinant, largest known insertion between motifs I and Ia (protein, UniProt Q92499 1-740, looked up)
chain: MAAFSEMGVMPEIAQAVEEMDWLLPTDIQAESIPLILGGGDVLMAAETGSGKTGAFSIPVIQIVYETLKDQQEGKKGKTTIKTGASVLNKWQMNPYDRGSAFAIGSDGLCCQSREVKEWHGCRATKGLMKGKHYYEVSCHDQGLCRVGWSTMQASLDLGTDKFGFGFGGTGKKSHNKQFDNYGEEFTMHDTIGCYLDIDKGHVKFSKNGKDLGLAFEIPPHMKNQALFPACVLKNAELKFNFGEEEFKFPPKDGFVALSKAPDGYIVKSQHSGNAQVTQTKFLPNAPKALIVEPSRELAEQTLNNIKQFKKYIDNPKLRELLIIGGVAARDQLSVLENGVDIVVGTPGRLDDLVSTGKLNLSQVRFLVLDEADGLLSQGYSDFINRMHNQIPQVTSDGKRLQVIVCSATLHSFDVKKLSEKIMHFPTWVDLKGEDSVPDTVHHVVVPVNPKTDRLWERLGKSHIRTDDVHAKDNTRPGANSPEMWSEAIKILKGEYAVRAIKEHKMDQAIIFCRTKIDCDNLEQYFIQQGGGPDKKGHQFSCVCLHGDRKPHERKQNLERFKKGDVRFLICTDVAARGIDIHGVPYVINVTLPDEKQNYVHRIGRVGRAERMGLAISLVATEKEKVWYHVCSSRGKGCYNTRLKEDGGCTIWYNEMQLLSEIEEHLNCTISQVEPDIKVPVDEFDGKVTYGQKRAAGGGSYKGHVDILAPTVQELAALEKEAQTSFLHLGYLPNQLFRTF
modifications: full-length
notes: full length human DEAD-box protein DDX1, recombinant, largest known insertion between motifs I and Ia
B3: I-DDX3: double deletion DDX3 mutant (Δ1–159/Δ428–662), aa 160–427, helicase core of subdomain 1 (protein, UniProt O00571 160-427, looked up, fragment)
chain: FEKYDDIPVEATGNNCPPHIESFSDVEMGEIIMGNIELTRYTRPTPVQKHAIPIIKEKRDLMACAQTGSGKTAAFLLPILSQIYSDGPGEALRAMKENGRYGRRKQYPISLVLAPTRELAVQIYEEARKFSYRSRVRPCVVYGGADIGQQIRDLERGCHLLVATPGRLVDMMERGKIGLDFCKYLVLDEADRMLDMGFEPQIRRIVEQDTMPPKGVRHTMMFSATFPKEIQMLARDFLDEYIFLAVGRVGSTSENITQKVVWVEESDK

Tests used:
Type in all cases: biochemical
[1] = tested on: 18/36mer ds RNA oligonucleotide; test: RNA helicase assay; conditions: data not shown
Text: (§1) The helicase activity of DDX3wt and mutant forms was monitored by measuring the conversion of a double stranded (ds) DNA or RNA (labelled at the 5′-end of one strand with a 6-FAM fluorescent group) into single stranded (ss) nucleic acid. For the RNA helicase assay, a 18/36mer ds RNA oligonucleotide with both 3′ and 5′-protruding ss ends was used. For the DNA helicase assay, three different dsDNA substrates were used, all of them composed of the same 18mer oligonucleotide 5′-FAM labelled and three different 38 mer oligonucleotides with the sequence complementary to the 18 mer at different positions. Annealing of the 18 mer to each of the 38 mer generated the different DNA substrates shown in Fig. 5 A. A final concentration of 20 nM RNA or DNA substrate was used in the experiments, unless otherwise stated. The amounts of the different DDX3 proteins are indicated in the respective Figures.
Reactions were performed in 50 mM TrisHCl pH 7.5, 1 mM DTT, 0.2 mg/ml BSA, 5% glycerol and 1 mM ATP, 10 mM MgCl2 at 37°C degrees for 10′ and stopped by adding EDTA 50 mM pH 8. Products were separated on a native 7% PAGE […] at 5 W in TBE buffer with 0.1% SDS at 4°C for 2 hours for RNA substrates, 4 hours for DNA substrates. Substrates and products were quantified by laser scanning densitometry (Thyphoon-TRIO, GE Healthcare). […]

[2] = tested on: partially dsDNA substrates (18/38-mer); test: DNA helicase assay; conditions: for DNA helicase activity: data not shown
Text: as §1
Reactions were performed in 50 mM TrisHCl pH 7.5, 1 mM DTT, 0.2 mg/ml BSA, 5% glycerol and 1 mM ATP, 10 mM MgCl2 at 37°C degrees for 10′ and stopped by adding EDTA 50 mM pH 8. Products were separated on a native 7% PAGE […] at 5 W in TBE buffer with 0.1% SDS at 4°C for 2 hours for RNA substrates, 4 hours for DNA substrates. Substrates and products were quantified by laser scanning densitometry (Thyphoon-TRIO, GE Healthcare). For trap-assays, the enzyme and the RNA substrate were incubated on ice for 4 min, in the absence of ATP. Reactions were started by addition of ATP and a 50-fold molar excess (1 µM) of r(A)40 trap RNA oligonucleotide, followed by incubation at 37°C for the indicated times.

[3] = ATPase time-course (burst kinetics)
Method: (§2) The ATPase activity was determined, as previously described, by directly monitoring [γ-^32P] ATP hydrolysis by thin-layer chromatography (TLC). ATP (3000 Ci/mmol) as tracer, plus 1 mM of cold ATP, unless otherwise stated, and nucleic acids as indicated. Samples were incubated for 5 minutes at 25°C and dotted onto TLC sheets of polyethylenimine cellulose. The products were separated by ascending chromatography with 0.5 M KH2PO4 (pH 3.4). The intensities of the radioactive bands corresponding to ATP and Pi were quantified by densitometric scanning with PhosphoImager. For the stimulation of the ATPase activity, the ssDNA oligonucleotide oligo(dT)20 or the ssRNA oligonucleotide oligo (rU)20 were used. Time-course experiments were performed under the conditions described above. Samples were taken at different time points and processed as described above.
Variation of the ATPase reaction as a function of time was fitted to the mixed-exponential equation: [drawing 3] (3) where [P] is the concentration of products (pmols) at any given time point, t is time, Aburst is the burst amplitude, k burst is the rate of the exponential phase, k ss is the rate of the steady-state linear phase.

[4] = ATPase activity assay ([γ-32P]ATP hydrolysis, TLC), steady-state kinetics; conditions: for Intrinsic ability to hydrolyze ATP: absence of nucleic acid; for Stimulation of ATPase activity by nucleic acids: presence of both NA (RNA, DNA)
Method: as §2
ATPase reactions were performed as described, in the presence of increasing amounts of nucleic acids and variable ATP concentrations. […] The relative -fold increase in the ATPase velocities 1−(vDNA/v) as a function of the nucleic acid concentrations was fitted to the hyperbolic relationship: [drawing 2] (2) where vNA is the apparent velocity of the reaction in the presence of nucleic acid, v is the velocity in its absence, KD is the apparent affinity for the nucleic acid and [NA] is the concentration of the nucleic acid substrate. The symbol KD is used, instead of Km, solely to reflect the fact that the NA is not a reactant (i.e. it is not converted into products) but only a cofactor of the reaction, without implying any assumption on the nature of the microscopic rates contributing to the KD value itself.

[5] = relative to absence of nucleic acid

Molecule	RNA helicase activity [1]	DNA helicase activity [2]	Aburst ([3]; +DNA, oligo(dT)20) [µM]	k burst ([3]; +DNA, oligo(dT)20) [min⁻¹]	k ss ([3]; +DNA, oligo(dT)20) [min⁻¹]	Aburst ([3]; +RNA, oligo(rU)20) [µM]	k burst ([3]; +RNA, oligo(rU)20) [min⁻¹]	k ss ([3]; +RNA, oligo(rU)20) [min⁻¹]	Aburst ([3]; absence of nucleic acids) [µM]	k burst ([3]; absence of nucleic acids) [min⁻¹]	k ss ([3]; absence of nucleic acids) [min⁻¹]	k cat ([4]; +DNA, oligo(dT)20) [s⁻¹]	k cat ([4]; +RNA, oligo(rU)20) [s⁻¹]	Intrinsic ability to hydrolyze ATP [4]	k cat ([4]; absence of nucleic acids) [s⁻¹]	Stimulation of ATPase activity by nucleic acids [4]	DNA unwinding ([2]; DNA duplex with both 5′- and 3′-protruding ssDNA ends, 18/[5′-3′]-38 mer)	Increase of catalytic efficiency (kcat/Km) by DNA [4, 5] [fold]	Increase of catalytic efficiency (kcat/Km) by RNA [4, 5] [fold]
B1	did not show helicase activity	inactive	0.12 ± 0.01	0.5 ± 0.5	0.33 ± 0.05	0.13 ± 0.01	0.5 ± 0.5	0.35 ± 0.06	0.12 ± 0.02	1 ± 0.5	0.4 ± 0.05	0.0183 ± 0.0083	0.0163 ± 0.0005	low but detectable ATPase activity	0.013 ± 0.005	no stimulation	–	–	–
B2	–	–	–	–	–	–	–	–	–	–	–	0.035 ± 0.005	0.0633 ± 0.0083	–	0.0317 ± 0.005	–	did not display DNA unwinding capability	1.3	2.6
B3	did not show helicase activity	inactive	0.15 ± 0.02	0.4 ± 0.6	0.3 ± 0.05	0.11 ± 0.03	0.4 ± 0.5	0.4 ± 0.04	0.12 ± 0.02	0.3 ± 0.4	0.3 ± 0.05	0.0233 ± 0.0067	0.0267 ± 0.0083	low but detectable ATPase activity	0.0183 ± 0.0033	no stimulation	–	–	–
